For one data set, the target named is T1, APG06646.1 (Bacillus sp.).
T1 chain: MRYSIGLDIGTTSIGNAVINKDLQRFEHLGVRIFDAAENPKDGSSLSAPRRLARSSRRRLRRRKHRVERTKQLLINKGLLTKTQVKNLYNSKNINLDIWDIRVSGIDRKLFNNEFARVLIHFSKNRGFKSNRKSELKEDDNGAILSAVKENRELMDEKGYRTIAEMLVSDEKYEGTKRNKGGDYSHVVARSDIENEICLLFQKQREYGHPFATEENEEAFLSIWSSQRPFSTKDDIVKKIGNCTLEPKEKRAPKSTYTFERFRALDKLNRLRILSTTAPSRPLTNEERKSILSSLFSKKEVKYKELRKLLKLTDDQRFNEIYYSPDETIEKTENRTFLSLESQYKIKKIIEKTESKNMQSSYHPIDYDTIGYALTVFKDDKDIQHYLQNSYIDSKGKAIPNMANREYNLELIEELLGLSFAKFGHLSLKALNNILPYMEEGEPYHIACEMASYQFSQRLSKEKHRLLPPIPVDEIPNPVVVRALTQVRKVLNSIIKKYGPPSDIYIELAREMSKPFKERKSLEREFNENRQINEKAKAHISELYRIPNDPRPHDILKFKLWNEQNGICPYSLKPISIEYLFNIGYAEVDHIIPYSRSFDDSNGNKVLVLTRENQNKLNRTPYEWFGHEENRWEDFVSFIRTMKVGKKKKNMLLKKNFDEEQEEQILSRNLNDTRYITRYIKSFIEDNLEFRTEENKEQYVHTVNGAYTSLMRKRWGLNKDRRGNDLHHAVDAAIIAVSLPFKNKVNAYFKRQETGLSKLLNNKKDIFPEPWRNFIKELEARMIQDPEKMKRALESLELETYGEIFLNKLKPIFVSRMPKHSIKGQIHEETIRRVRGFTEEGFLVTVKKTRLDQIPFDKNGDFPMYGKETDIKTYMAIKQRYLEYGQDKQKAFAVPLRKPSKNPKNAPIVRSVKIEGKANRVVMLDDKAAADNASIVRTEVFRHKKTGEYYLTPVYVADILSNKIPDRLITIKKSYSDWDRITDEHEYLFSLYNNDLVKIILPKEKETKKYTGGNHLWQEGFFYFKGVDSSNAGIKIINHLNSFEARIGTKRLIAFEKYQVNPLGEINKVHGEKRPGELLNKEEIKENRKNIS
Kind of data set: cell_activity; PAM NNNNC 3'. The settings on record: tags: N-term SV40 NLS and 3xFLAG, C-term 2x nucleoplasmin NLS in HEK293T.

Another data set deals with T2, APG01658.1 (Staphylococcus sp.).
T2 chain: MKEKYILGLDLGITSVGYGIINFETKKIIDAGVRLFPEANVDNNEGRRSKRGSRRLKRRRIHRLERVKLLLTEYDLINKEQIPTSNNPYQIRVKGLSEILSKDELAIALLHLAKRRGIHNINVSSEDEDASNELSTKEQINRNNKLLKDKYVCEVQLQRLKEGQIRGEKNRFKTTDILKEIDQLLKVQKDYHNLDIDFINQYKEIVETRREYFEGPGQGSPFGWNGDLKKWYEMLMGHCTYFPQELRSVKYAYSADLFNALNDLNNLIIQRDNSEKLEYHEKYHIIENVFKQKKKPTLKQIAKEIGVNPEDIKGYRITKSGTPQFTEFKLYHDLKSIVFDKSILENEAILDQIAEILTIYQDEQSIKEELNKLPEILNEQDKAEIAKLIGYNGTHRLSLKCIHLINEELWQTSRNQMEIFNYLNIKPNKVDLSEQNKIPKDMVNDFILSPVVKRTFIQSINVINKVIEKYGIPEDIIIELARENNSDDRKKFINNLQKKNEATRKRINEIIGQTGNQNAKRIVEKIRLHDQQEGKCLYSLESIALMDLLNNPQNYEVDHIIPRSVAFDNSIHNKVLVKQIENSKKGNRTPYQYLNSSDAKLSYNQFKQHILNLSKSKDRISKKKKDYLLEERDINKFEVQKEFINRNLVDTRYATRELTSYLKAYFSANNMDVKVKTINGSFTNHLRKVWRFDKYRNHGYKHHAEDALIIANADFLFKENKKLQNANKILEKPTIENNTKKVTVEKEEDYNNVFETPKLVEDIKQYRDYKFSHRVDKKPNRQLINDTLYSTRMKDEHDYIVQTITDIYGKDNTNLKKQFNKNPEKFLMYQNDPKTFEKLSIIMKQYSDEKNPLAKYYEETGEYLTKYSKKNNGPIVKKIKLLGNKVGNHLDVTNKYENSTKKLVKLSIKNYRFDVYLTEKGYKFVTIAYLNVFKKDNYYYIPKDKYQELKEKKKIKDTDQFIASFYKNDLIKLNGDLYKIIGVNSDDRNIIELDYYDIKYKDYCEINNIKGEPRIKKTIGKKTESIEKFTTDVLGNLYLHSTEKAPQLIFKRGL
Kind of data set: cell_activity; PAM SEQ ID NO 44, 3' of target. The settings on record: tags: N-term SV40 NLS and 3xFLAG, C-term 2x nucleoplasmin NLS in HEK293T.

From patent publication US20220364074, “RNA-GUIDED NUCLEASES AND ACTIVE FRAGMENTS AND VARIANTS THEREOF AND METHODS OF USE” (LIFEEDIT THERAPEUTICS, INC., published 2022) come the findings set out here.

B1: guide 450 ; AurkB target 493 (ssRNA ; dsDNA)
RNA: CAUGGCAGUACAUUAGAGCAGCCAUAAUUCCUCUGUAAAACUUAAAGAAGGUUUAUAGAGUUAUUAUGGUAAGGCAAUAUGCCGUGGCGUUGGGGAUCGCCUAUGUCCGGUUUUACCGGAUCUCCCUAAAGGUGACUAACUUUGGUUAGUCACCUUUUU
DNA 1: CATGGCAGTACATTAGAGCA
DNA 2: TGCTCTAATGTACTGCCATG
B1 had an activity with APG06646.1 of 7.94 % editing.

B2: guide 462 ; AurkB target 523 (ssRNA ; dsDNA)
RNA: GUUUUAAUGGCCCAGCCUCACACCCGCCAUAAUUCCUCUGUAAAACUUAAAGAAGGUUUAUAGAGUUAUUAUGGUAAGGCAAUAUGCCGUGGCGUUGGGGAUCGCCUAUGUCCGGUUUUACCGGAUCUCCCUAAAGGUGACUAACUUUGGUUAGUCACCUUUUU
DNA 1: GTTTTAATGGCCCAGCCTCACACCC
DNA 2: GGGTGTGAGGCTGGGCCATTAAAAC
Molecule B2 yielded an activity in the data set with APG06646.1 of 10.9 % editing.

B3: guide 428 ; AurkB target 491 (ssRNA ; dsDNA)
RNA: GGCUGGGCCAUUAAAACCUCUCCAGUUUUAGUACUCUGUAAUUUUAGGUAUGAAAGUCAUACCUAAAAUUACAGAAUCUACUGAAACAAGACUAUAUGUCGUGUUUAUCCCACUAAUUUAUUAGUGGGAUUUU
DNA 1: GGCTGGGCCATTAAAACCTCTCCA
DNA 2: TGGAGAGGTTTTAATGGCCCAGCC
B3 yielded an activity with APG01658.1 of 13.1 % editing.

B4: guide 451 ; TRA target 512 (ssRNA ; dsDNA)
RNA: CCCUGGCUGUGCACAUUCCCUCCUGGCCAUAAUUCCUCUGUAAAACUUAAAGAAGGUUUAUAGAGUUAUUAUGGUAAGGCAAUAUGCCGUGGCGUUGGGGAUCGCCUAUGUCCGGUUUUACCGGAUCUCCCUAAAGGUGACUAACUUUGGUUAGUCACCUUUUU
DNA 1: CCCTGGCTGTGCACATTCCCTCCTG
DNA 2: CAGGAGGGAATGTGCACAGCCAGGG
For B4, in the data set with APG06646.1, the activity worked out at 7.03 % editing.

B5: guide 423 ; RelA target 486 (ssRNA ; dsDNA)
RNA: ACAGUGCGCAUCUCCCUGGUCACCGUUUUAGUACUCUGUAAUUUUAGGUAUGAAAGUCAUACCUAAAAUUACAGAAUCUACUGAAACAAGACUAUAUGUCGUGUUUAUCCCACUAAUUUAUUAGUGGGAUUUU
DNA 1: ACAGTGCGCATCTCCCTGGTCACC
DNA 2: GGTGACCAGGGAGATGCGCACTGT
Take B5: in the data set with APG01658.1, the activity stood at 10 % editing.
